We go through three molecules from article PMC6915088, “Biosynthesis of the Stress-Protectant and Chemical Chaperon Ectoine: Biochemistry of the Transaminase EctB” (Frontiers in Microbiology, 2019).

One series addresses T1, (Pl)EctB (Paenibacillus lautus, UniProt A0A385TGF8).
T1 construct: full length; N-terminal Strep-tag II (WSHPQFEK) with linker SGMIEGR (factor Xa site), plasmid pAR8; no tag removal described; E. coli BL21; homotetramer; purified as apo-protein, PLP added
Description: activation of apo-enzyme by added PLP, L-glutamate formation by HPLC. The series is classed as biochemical. The following applies: 10 mM DAB, 15 mM 2-oxoglutarate, 100 mM Tris-HCl pH 7.0, 100 mM NaCl, 45 °C, 1 min; titration curve only, no constant; Schiff base at Lys274 inferred.

Series [1] concerns the molecule itself. Nature of the series: SEC-MALS; S200 300/10 GL analytical column with MALS and RI detectors, 4°C; 100 μL sample at 100 μM protein; 20 mM HEPES pH 7.5, 200 mM NaCl, 20 mM MgCl2, 20 mM KCl. A general note: SEC sorts molecules by how far they enter the pores of the column.

As to `Cc1ncc(COP(=O)(O)O)c(C=O)c1O` [PLP], the “activation of apo-enzyme by added PLP, L-glutamate formation by HPLC” value on (Pl)EctB is reported as “the specific activity of (Pl)EctB strictly relies on the addition of PLP”.

B1: (Pl)EctB, L-2,4-diaminobutyrate transaminase EctB from Paenibacillus lautus (enzyme, Paenibacillus lautus strain Y412MC10, UniProt A0A385TGF8 1-430, looked up)
chain: MDNQVMEKPKLTVFNKLESEVRSYCRSFQTVFDKARNAKLWDTQGNEYIDFFAGAGALNYGHNNERIREKLVDYILQDGVTHSLDMATGAKETFLTRFQEIILKPRGWDHKVMFPGPTGTNAVEAALKIARKVTGRSTVLCFTNAFHGMSLGSLAVTGNAFKRQGAGVDLSHSVFMPYDGYFGSDVDTMAYMEKLLDDPGSGIPLPAAVIVEAVQGEGGLNAASRQWLQKLARICKDKGMLLILDDIQMGCGRTGSFFSFDDAGIEPDIVCLSKSIGGFGLPMAITLIKPEIDIWEPGEHNGTFRGNNLGFVAAAEALSYWKTEEFQLDIGIREHRIRQSLENVVREYPRLGGEIRGRGMIQGVAFDKPEHAGRLSEIAFEQGLIMETSGPHSEVAKLMPPLTIEMNTLAEGLGIFENSMKQLAAEERLS
notes: EctB (L-2,4-diaminobutyrate transaminase) of Paenibacillus lautus strain Y412MC10; codon-optimized synthetic ectB gene; calculated mass 49.1 kDa including the Strep-tag II peptide and linker; The protein was purified as an apo-protein without PLP; also called (Pl)EctB wild-type protein; P. lautus EctB; not shown: Strep-tag II, N-terminal, kept
What is called stoichiometry N is a count of units in the complex or per binding partner. On to B1, for which the “stoichiometry N” value in series [1] amounted to 4.

B2: (Pl)EctB Lys274/His variant (enzyme, Paenibacillus lautus strain Y412MC10, UniProt A0A385TGF8 1-430, looked up)
chain: MDNQVMEKPKLTVFNKLESEVRSYCRSFQTVFDKARNAKLWDTQGNEYIDFFAGAGALNYGHNNERIREKLVDYILQDGVTHSLDMATGAKETFLTRFQEIILKPRGWDHKVMFPGPTGTNAVEAALKIARKVTGRSTVLCFTNAFHGMSLGSLAVTGNAFKRQGAGVDLSHSVFMPYDGYFGSDVDTMAYMEKLLDDPGSGIPLPAAVIVEAVQGEGGLNAASRQWLQKLARICKDKGMLLILDDIQMGCGRTGSFFSFDDAGIEPDIVCLSHSIGGFGLPMAITLIKPEIDIWEPGEHNGTFRGNNLGFVAAAEALSYWKTEEFQLDIGIREHRIRQSLENVVREYPRLGGEIRGRGMIQGVAFDKPEHAGRLSEIAFEQGLIMETSGPHSEVAKLMPPLTIEMNTLAEGLGIFENSMKQLAAEERLS
notes: EctB (L-2,4-diaminobutyrate transaminase) of Paenibacillus lautus strain Y412MC10; codon-optimized synthetic ectB gene with Lys274 changed to His (AAA/CAT) by site-directed mutagenesis of pAR8; not shown: Strep-tag II, N-terminal, kept
As to B2, the “stoichiometry N” value in series [1] was found to be 4.
